From patent publication US20210054097A1 (Novo Nordisk, published 2021)
Ends that are not written are not given here.

Tests used:
human activated Factor X = human activated Factor X (human, UniProt P00742 41-179; P00742 235-488); assay: cell-based or functional assay
[1] = target: T1, FX activation peptide 12-mer FDLLDFNQTQPE (human); assay: peptide ELISA
T1 peptide: FDLLDFNQTQPE-biotin
Outline: (§1)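 Nanobodies (FLAG-tagged) or IgG antibodies, 2 μg/mL, incubated 1 h on C-terminally biotinylated peptide captured via streptavidin, washing buffer pH 8.60 containing CaCl₂ and Tween 20. Read-out: HRP-conjugated secondary antibody with TMB colour development.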

[2] = target: T2, FX activation peptide 12-mer TWKPYDAADLDP (human); assay: peptide ELISA
T2 peptide: TWKPYDAADLDP-biotin
Outline: as §1

[3] = target: T3, FX activation peptide 12-mer LLDFNQTQPERG (human); assay: peptide ELISA
T3 peptide: LLDFNQTQPERG-biotin
Outline: as §1

[4] = target: T4, FX activation peptide 12-mer FNQTQPERGDNN (human); assay: peptide ELISA
T4 peptide: FNQTQPERGDNN-biotin
Outline: as §1

[5] = target: T5, FX activation peptide 12-mer AQATSSSGEAPD (human); assay: peptide ELISA
T5 peptide: AQATSSSGEAPD-biotin
Outline: as §1

[6] = target: T6, FX activation peptide 12-mer NQTQPERGDNNL (human); assay: peptide ELISA
T6 peptide: NQTQPERGDNNL-biotin
Outline: as §1

[7] = target: T7, FX activation peptide 12-mer NPFDLLDFNQTQ (human); assay: peptide ELISA
T7 peptide: NPFDLLDFNQTQ-biotin
Outline: as §1

[8] = target: T8, FX activation peptide 12-mer PYDAADLDPTEN (human); assay: peptide ELISA
T8 peptide: PYDAADLDPTEN-biotin
Outline: as §1

[9] = target: T9, FX activation peptide 12-mer VAQATSSSGEAP (human); assay: peptide ELISA
T9 peptide: VAQATSSSGEAP-biotin
Outline: as §1

[10] = target: T10, FX activation peptide 12-mer TSSSGEAPDSIT (human); assay: peptide ELISA
T10 peptide: TSSSGEAPDSIT-biotin
Outline: as §1

[11] = target: T11, FX activation peptide 12-mer DAADLDPTENPF (human); assay: peptide ELISA
T11 peptide: DAADLDPTENPF-biotin
Outline: as §1

[12] = target: T12, FX activation peptide 12-mer GEAPDSITWKPY (human); assay: peptide ELISA
T12 peptide: GEAPDSITWKPY-biotin
Outline: as §1

[13] = target: T13, FX activation peptide 12-mer ITWKPYDAADLD (human); assay: peptide ELISA
T13 peptide: ITWKPYDAADLD-biotin
Outline: as §1

[14] = target: T14, FX activation peptide 12-mer QTQPERGDNNLT (human); assay: peptide ELISA
T14 peptide: QTQPERGDNNLT-biotin
Outline: as §1

[15] = target: T15, FX activation peptide 12-mer TQPERGDNNLTR (human); assay: peptide ELISA
T15 peptide: TQPERGDNNLTR-biotin
Outline: as §1

[16] = target: T16, FX activation peptide 12-mer LDFNQTQPERGD (human); assay: peptide ELISA
T16 peptide: LDFNQTQPERGD-biotin
Outline: as §1

[17] = target: T17, FX activation peptide 12-mer KPYDAADLDPTE (human); assay: peptide ELISA
T17 peptide: KPYDAADLDPTE-biotin
Outline: as §1

[18] = target: T18, FX activation peptide 12-mer ATSSSGEAPDSI (human); assay: peptide ELISA
T18 peptide: ATSSSGEAPDSI-biotin
Outline: as §1

[19] = target: T19, FX activation peptide 12-mer TENPFDLLDFNQ (human); assay: peptide ELISA
T19 peptide: TENPFDLLDFNQ-biotin
Outline: as §1

[20] = target: T20, FX activation peptide 12-mer QATSSSGEAPDS (human); assay: peptide ELISA
T20 peptide: QATSSSGEAPDS-biotin
Outline: as §1

[21] = target: T21, FX activation peptide 12-mer SSSGEAPDSITW (human); assay: peptide ELISA
T21 peptide: SSSGEAPDSITW-biotin
Outline: as §1

[22] = target: T22, FX activation peptide 12-mer DLLDFNQTQPER (human); assay: peptide ELISA
T22 peptide: DLLDFNQTQPER-biotin
Outline: as §1

[23] = target: T23, FX activation peptide 12-mer SSGEAPDSITWK (human); assay: peptide ELISA
T23 peptide: SSGEAPDSITWK-biotin
Outline: as §1

[24] = target: T24, FX activation peptide 12-mer DLDPTENPFDLL (human); assay: peptide ELISA
T24 peptide: DLDPTENPFDLL-biotin
Outline: as §1

[25] = target: T25, FX activation peptide 12-mer WKPYDAADLDPT (human); assay: peptide ELISA
T25 peptide: WKPYDAADLDPT-biotin
Outline: as §1

[26] = target: T26, FX activation peptide 12-mer AADLDPTENPFD (human); assay: peptide ELISA
T26 peptide: AADLDPTENPFD-biotin
Outline: as §1

[27] = target: T27, FX activation peptide 12-mer YDAADLDPTENP (human); assay: peptide ELISA
T27 peptide: YDAADLDPTENP-biotin
Outline: as §1

[28] = target: T28, FX activation peptide 12-mer PDSITWKPYDAA (human); assay: peptide ELISA
T28 peptide: PDSITWKPYDAA-biotin
Outline: as §1

[29] = target: T29, FX activation peptide 12-mer SVAQATSSSGEA (human); assay: peptide ELISA
T29 peptide: SVAQATSSSGEA-biotin
Outline: as §1

[30] = target: T30, FX activation peptide 12-mer SITWKPYDAADL (human); assay: peptide ELISA
T30 peptide: SITWKPYDAADL-biotin
Outline: as §1

[31] = target: T31, FX activation peptide 12-mer SGEAPDSITWKP (human); assay: peptide ELISA
T31 peptide: SGEAPDSITWKP-biotin
Outline: as §1

[32] = target: T32, FX activation peptide 12-mer ADLDPTENPFDL (human); assay: peptide ELISA
T32 peptide: ADLDPTENPFDL-biotin
Outline: as §1

Chain of human activated Factor X (P00742 41-179, chain 1 of 2): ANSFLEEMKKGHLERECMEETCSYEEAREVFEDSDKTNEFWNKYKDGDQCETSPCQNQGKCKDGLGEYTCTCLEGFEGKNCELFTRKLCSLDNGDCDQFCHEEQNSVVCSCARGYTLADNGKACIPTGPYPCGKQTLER
Chain of human activated Factor X (P00742 235-488, chain 2 of 2): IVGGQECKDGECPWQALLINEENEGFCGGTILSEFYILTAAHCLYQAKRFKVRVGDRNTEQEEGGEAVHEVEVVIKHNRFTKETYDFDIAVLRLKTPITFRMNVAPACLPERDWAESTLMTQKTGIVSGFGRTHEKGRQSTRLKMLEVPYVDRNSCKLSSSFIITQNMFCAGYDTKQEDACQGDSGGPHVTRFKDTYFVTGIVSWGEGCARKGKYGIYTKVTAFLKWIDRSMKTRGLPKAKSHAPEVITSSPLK

B1: Nb 729C08 (VHH)
VHH: EVQLVESGGGVVQPGGSLRLSCAASGFTFSDYAMSWVRQAPGKGLEWVSGITGGGRTYYADSVKGRFTISRDNSKNTLYLQMNSLRPEDTALYYCAAAILTRTRRTYDYWGQGTLVTVSS
notes: monovalent Nanobody; also called Nb 729008; not shown: C-terminal FLAG3 and HIS6 tag
For B1, which “FXa amidolytic activity (relative to free FXa, fold)” value (human activated Factor X) is on record?
The value was 1.09 fold.

And the “ELISA signal relative to background” value [1]?
Its value is 1.15.

What about the “ELISA signal relative to background” value [2] of the same binder?
Its value is 1.17.

And the “ELISA signal relative to background” value [3]?
Its value is 1.13.

What about the “ELISA signal relative to background” value [4] of the same binder?
Its value is 1.08.

What about the “ELISA signal relative to background” value [5] of the same binder?
The value was 1.17.

What about the “ELISA signal relative to background” value [6] of the same binder?
Its value is 1.09.

What about the “ELISA signal relative to background” value [7] of the same binder?
The value was 3.41.

What about the “ELISA signal relative to background” value [8] of the same binder?
The value was 1.08.

And the “ELISA signal relative to background” value [9]?
The value was 1.09.

And the “ELISA signal relative to background” value [10]?
The value was 1.06.

And the “ELISA signal relative to background” value [11]?
Its value is 1.18.

And the “ELISA signal relative to background” value [12]?
Its value is 1.15.

And the “ELISA signal relative to background” value [13]?
The value was 1.06.

What about the “ELISA signal relative to background” value [14] of the same binder?
The value was 1.04.

And the “ELISA signal relative to background” value [15]?
The value was 1.37.

And the “ELISA signal relative to background” value [16]?
Its value is 1.12.

And the “ELISA signal relative to background” value [17]?
The value was 1.1.

What about the “ELISA signal relative to background” value [18] of the same binder?
The value was 1.13.

What about the “ELISA signal relative to background” value [19] of the same binder?
The value was 3.14.

And the “ELISA signal relative to background” value [20]?
The value was 1.12.

And the “ELISA signal relative to background” value [21]?
Its value is 1.1.

What about the “ELISA signal relative to background” value [22] of the same binder?
The value was 1.22.

What about the “ELISA signal relative to background” value [23] of the same binder?
The value was 1.06.

And the “ELISA signal relative to background” value [24]?
Its value is 1.21.

And the “ELISA signal relative to background” value [25]?
The value was 1.08.

What about the “ELISA signal relative to background” value [26] of the same binder?
The value was 1.17.

What about the “ELISA signal relative to background” value [27] of the same binder?
Its value is 1.09.

And the “ELISA signal relative to background” value [28]?
The value was 1.17.

What about the “ELISA signal relative to background” value [29] of the same binder?
Its value is 1.14.

And the “ELISA signal relative to background” value [30]?
Its value is 1.11.

And the “ELISA signal relative to background” value [31]?
The value was 1.07.

What about the “ELISA signal relative to background” value [32] of the same binder?
The value was 1.11.
